Molecular target: T1, EsCas13d, nuclease-dead (Eubacterium siraeum, UniProt B0MS50, R295A;H300A;R849A;H854A)
T1 sequence: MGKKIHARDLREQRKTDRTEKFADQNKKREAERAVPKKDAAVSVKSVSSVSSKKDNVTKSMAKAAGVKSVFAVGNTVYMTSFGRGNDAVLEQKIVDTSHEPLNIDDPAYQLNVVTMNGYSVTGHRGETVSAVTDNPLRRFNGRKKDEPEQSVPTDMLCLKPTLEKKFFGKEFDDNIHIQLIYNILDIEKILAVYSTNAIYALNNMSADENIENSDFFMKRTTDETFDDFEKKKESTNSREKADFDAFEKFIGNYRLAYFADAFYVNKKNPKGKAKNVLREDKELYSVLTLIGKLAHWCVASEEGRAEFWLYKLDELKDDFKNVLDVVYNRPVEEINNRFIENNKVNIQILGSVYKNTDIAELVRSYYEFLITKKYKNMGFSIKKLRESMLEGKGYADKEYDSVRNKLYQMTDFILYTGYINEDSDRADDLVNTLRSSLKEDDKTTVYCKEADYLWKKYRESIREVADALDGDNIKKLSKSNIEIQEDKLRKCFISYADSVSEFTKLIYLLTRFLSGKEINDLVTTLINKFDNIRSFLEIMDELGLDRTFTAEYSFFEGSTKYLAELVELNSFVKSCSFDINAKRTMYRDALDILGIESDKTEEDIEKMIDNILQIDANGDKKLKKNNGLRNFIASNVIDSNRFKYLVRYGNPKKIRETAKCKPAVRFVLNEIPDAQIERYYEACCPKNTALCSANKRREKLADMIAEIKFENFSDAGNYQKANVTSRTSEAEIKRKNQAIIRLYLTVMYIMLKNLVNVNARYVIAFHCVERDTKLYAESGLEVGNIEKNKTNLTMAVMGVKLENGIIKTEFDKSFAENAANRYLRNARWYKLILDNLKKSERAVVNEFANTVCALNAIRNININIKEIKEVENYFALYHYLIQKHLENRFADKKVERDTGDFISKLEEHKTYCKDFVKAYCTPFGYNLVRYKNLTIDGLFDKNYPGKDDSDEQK
Test: crRNA (strand 1, pre-loaded); Mg2+; 40 mM Tris-HCl pH 7.5, 150 mM NaCl, 6 mM MgCl2, 1 mM DTT, 0.1% Tween-20, 0.2 mg/ml BSA; 25 C; 10 min per concentration, then washed
Settings: tags: His6-TwinStrep-SUMO cleaved; N-terminal SNAP kept (SNAP-Surface 488); label: 3' end held by stalled T7 RNA polymerase

B1: target 1 MT 5'PFS CCU 3'PFS UAU (mixed)
RNA 1: CACCCGUGCAAAAAUGCAGGGGUCUAAAACUGAGCGGAUAACCUCUCUAUGG
RNA 2: GGGAAUGGAUCCACAUCUACGAAUUCCCUCCAUAGAGAGGUUAUCCGCUCAUAUAGAUCGGAAGAGCACACGU
B1 was tested, and the Kd was about 15 nM.

B2: target 1 MT 5'PFS CAA 3'PFS AGU (mixed)
RNA 1: CACCCGUGCAAAAAUGCAGGGGUCUAAAACUGAGCGGAUAACCUCUCUAUGG
RNA 2: GGGAAUGGAUCCACAUCUACGAAUUCCAACCAUAGAGAGGUUAUCCGCUCAAGUAGAUCGGAAGAGCACACGU
In the case of B2, the Kd is reported as about 52 nM.

B3: target 1 MT 5'PFS CCG 3'PFS AUA (mixed)
RNA 1: CACCCGUGCAAAAAUGCAGGGGUCUAAAACUGAGCGGAUAACCUCUCUAUGG
RNA 2: GGGAAUGGAUCCACAUCUACGAAUUCCCGCCAUAGAGAGGUUAUCCGCUCAAUAAGAUCGGAAGAGCACACGU
B3 showed a Kd of 5.1 ± 1.45 nM.

B4: target 1 C4U,U8G (mixed)
RNA 1: CACCCGUGCAAAAAUGCAGGGGUCUAAAACUGAGCGGAUAACCUCUCUAUGG
RNA 2: GGGAAUGGAUCCACAUCUACGAAUUCGUACCAUAGAGAGGUUAGCCGUUCACCGAGAUCGGAAGAGCACACGU
In the case of B4, the Kd is reported as 14.1 ± 0.8 nM.

B5: target 1 MT 5'PFS AGA 3'PFS UGA (mixed)
RNA 1: CACCCGUGCAAAAAUGCAGGGGUCUAAAACUGAGCGGAUAACCUCUCUAUGG
RNA 2: GGGAAUGGAUCCACAUCUACGAAUUCAGACCAUAGAGAGGUUAUCCGCUCAUGAAGAUCGGAAGAGCACACGU
With B5 the Kd was 90 ± 40 nM.

B6: target 1 G15C,A16C (mixed)
RNA 1: CACCCGUGCAAAAAUGCAGGGGUCUAAAACUGAGCGGAUAACCUCUCUAUGG
RNA 2: GGGAAUGGAUCCACAUCUACGAAUUCGUACCAUAGCCAGGUUAUCCGCUCACCGAGAUCGGAAGAGCACACGU
For B6, the Kd was about 90 nM.

B7: target 1 MT 5'PFS GUG 3'PFS GGC (mixed)
RNA 1: CACCCGUGCAAAAAUGCAGGGGUCUAAAACUGAGCGGAUAACCUCUCUAUGG
RNA 2: GGGAAUGGAUCCACAUCUACGAAUUCGUGCCAUAGAGAGGUUAUCCGCUCAGGCAGAUCGGAAGAGCACACGU
Binder B7 has a Kd of 14 ± 2.25 nM.

B8: target 1 MT 5'PFS UUG 3'PFS CAA (mixed)
RNA 1: CACCCGUGCAAAAAUGCAGGGGUCUAAAACUGAGCGGAUAACCUCUCUAUGG
RNA 2: GGGAAUGGAUCCACAUCUACGAAUUCUUGCCAUAGAGAGGUUAUCCGCUCACAAAGAUCGGAAGAGCACACGU
In the case of B8, the Kd is reported as about 55 nM.

B9: target 1 MT 5'PFS GUA 3'PFS AGC (mixed)
RNA 1: CACCCGUGCAAAAAUGCAGGGGUCUAAAACUGAGCGGAUAACCUCUCUAUGG
RNA 2: GGGAAUGGAUCCACAUCUACGAAUUCGUACCAUAGAGAGGUUAUCCGCUCAAGCAGAUCGGAAGAGCACACGU
B9 showed a Kd of 6.27 ± 0.515 nM.

B10: target 1 MT 5'PFS GUA 3'PFS AGG (mixed)
RNA 1: CACCCGUGCAAAAAUGCAGGGGUCUAAAACUGAGCGGAUAACCUCUCUAUGG
RNA 2: GGGAAUGGAUCCACAUCUACGAAUUCGUACCAUAGAGAGGUUAUCCGCUCAAGGAGAUCGGAAGAGCACACGU
With B10 the Kd was 22.9 ± 1.4 nM.

B11: target 1 MT 5'PFS GUC 3'PFS CUG (mixed)
RNA 1: CACCCGUGCAAAAAUGCAGGGGUCUAAAACUGAGCGGAUAACCUCUCUAUGG
RNA 2: GGGAAUGGAUCCACAUCUACGAAUUCGUCCCAUAGAGAGGUUAUCCGCUCACUGAGAUCGGAAGAGCACACGU
Binder B11 has a Kd of 12.8 ± 2.9 nM.

B12: target 1 MT 5'PFS GUA 3'PFS AGU (mixed)
RNA 1: CACCCGUGCAAAAAUGCAGGGGUCUAAAACUGAGCGGAUAACCUCUCUAUGG
RNA 2: GGGAAUGGAUCCACAUCUACGAAUUCGUACCAUAGAGAGGUUAUCCGCUCAAGUAGAUCGGAAGAGCACACGU
For B12, the Kd was 9.9 ± 0.8 nM.

B13: target 1 MT 5'PFS GUG 3'PFS GGG (mixed)
RNA 1: CACCCGUGCAAAAAUGCAGGGGUCUAAAACUGAGCGGAUAACCUCUCUAUGG
RNA 2: GGGAAUGGAUCCACAUCUACGAAUUCGUGCCAUAGAGAGGUUAUCCGCUCAGGGAGAUCGGAAGAGCACACGU
With B13 the Kd was 32.9 ± 2.9 nM.

B14: target 1 MT 5'PFS GUC 3'PFS CUC (mixed)
RNA 1: CACCCGUGCAAAAAUGCAGGGGUCUAAAACUGAGCGGAUAACCUCUCUAUGG
RNA 2: GGGAAUGGAUCCACAUCUACGAAUUCGUCCCAUAGAGAGGUUAUCCGCUCACUCAGAUCGGAAGAGCACACGU
Work on B14 yielded a Kd of 39.5 ± 12.5 nM.

B15: target 1 MT 5'PFS CCU 3'PFS UAG (mixed)
RNA 1: CACCCGUGCAAAAAUGCAGGGGUCUAAAACUGAGCGGAUAACCUCUCUAUGG
RNA 2: GGGAAUGGAUCCACAUCUACGAAUUCCCUCCAUAGAGAGGUUAUCCGCUCAUAGAGAUCGGAAGAGCACACGU
Work on B15 yielded a Kd of 28 ± 11 nM.

B16: target 1 MT 5'PFS GUC 3'PFS CUA (mixed)
RNA 1: CACCCGUGCAAAAAUGCAGGGGUCUAAAACUGAGCGGAUAACCUCUCUAUGG
RNA 2: GGGAAUGGAUCCACAUCUACGAAUUCGUCCCAUAGAGAGGUUAUCCGCUCACUAAGAUCGGAAGAGCACACGU
B16 showed a Kd of 17.5 ± 4 nM.

B17: target 1 C6A,C22U (mixed)
RNA 1: CACCCGUGCAAAAAUGCAGGGGUCUAAAACUGAGCGGAUAACCUCUCUAUGG
RNA 2: GGGAAUGGAUCCACAUCUACGAAUUCGUAUCAUAGAGAGGUUAUCAGCUCACCGAGAUCGGAAGAGCACACGU
Work on B17 yielded a Kd of 11.6 ± 0.7 nM.

B18: target 1 MT 5'PFS CUU 3'PFS CAC (mixed)
RNA 1: CACCCGUGCAAAAAUGCAGGGGUCUAAAACUGAGCGGAUAACCUCUCUAUGG
RNA 2: GGGAAUGGAUCCACAUCUACGAAUUCCUUCCAUAGAGAGGUUAUCCGCUCACACAGAUCGGAAGAGCACACGU
B18 was tested, and the Kd was 47 ± 19 nM.

B19: target 1 MT 5'PFS CCU 3'PFS UAC (mixed)
RNA 1: CACCCGUGCAAAAAUGCAGGGGUCUAAAACUGAGCGGAUAACCUCUCUAUGG
RNA 2: GGGAAUGGAUCCACAUCUACGAAUUCCCUCCAUAGAGAGGUUAUCCGCUCAUACAGAUCGGAAGAGCACACGU
B19 showed a Kd of 13.4 ± 2.7 nM.

B20: target 1 MT 5'PFS GUA 3'PFS AGA (mixed)
RNA 1: CACCCGUGCAAAAAUGCAGGGGUCUAAAACUGAGCGGAUAACCUCUCUAUGG
RNA 2: GGGAAUGGAUCCACAUCUACGAAUUCGUACCAUAGAGAGGUUAUCCGCUCAAGAAGAUCGGAAGAGCACACGU
B20 was tested, and the Kd was 12.7 ± 0.8 nM.

B21: target 1 MT 5'PFS GUC 3'PFS CUU (mixed)
RNA 1: CACCCGUGCAAAAAUGCAGGGGUCUAAAACUGAGCGGAUAACCUCUCUAUGG
RNA 2: GGGAAUGGAUCCACAUCUACGAAUUCGUCCCAUAGAGAGGUUAUCCGCUCACUUAGAUCGGAAGAGCACACGU
B21 showed a Kd of 13.8 ± 2.6 nM.

B22: target 1 MT 5'PFS UUG 3'PFS CAC (mixed)
RNA 1: CACCCGUGCAAAAAUGCAGGGGUCUAAAACUGAGCGGAUAACCUCUCUAUGG
RNA 2: GGGAAUGGAUCCACAUCUACGAAUUCUUGCCAUAGAGAGGUUAUCCGCUCACACAGAUCGGAAGAGCACACGU
In the case of B22, the Kd is reported as about 85 nM.

B23: target 1 MT 5'PFS AGA 3'PFS UGU (mixed)
RNA 1: CACCCGUGCAAAAAUGCAGGGGUCUAAAACUGAGCGGAUAACCUCUCUAUGG
RNA 2: GGGAAUGGAUCCACAUCUACGAAUUCAGACCAUAGAGAGGUUAUCCGCUCAUGUAGAUCGGAAGAGCACACGU
Binder B23 has a Kd of 110 ± 50 nM.

B24: target 1 MT 5'PFS GUG 3'PFS GGU (mixed)
RNA 1: CACCCGUGCAAAAAUGCAGGGGUCUAAAACUGAGCGGAUAACCUCUCUAUGG
RNA 2: GGGAAUGGAUCCACAUCUACGAAUUCGUGCCAUAGAGAGGUUAUCCGCUCAGGUAGAUCGGAAGAGCACACGU
B24 showed a Kd of 25.6 ± 2.7 nM.

B25: target 1 MT 5'PFS AGA 3'PFS UGC (mixed)
RNA 1: CACCCGUGCAAAAAUGCAGGGGUCUAAAACUGAGCGGAUAACCUCUCUAUGG
RNA 2: GGGAAUGGAUCCACAUCUACGAAUUCAGACCAUAGAGAGGUUAUCCGCUCAUGCAGAUCGGAAGAGCACACGU
Work on B25 yielded a Kd of about 53.5 nM.

B26: target 1 MT 5'PFS AAU 3'PFS UAU (mixed)
RNA 1: CACCCGUGCAAAAAUGCAGGGGUCUAAAACUGAGCGGAUAACCUCUCUAUGG
RNA 2: GGGAAUGGAUCCACAUCUACGAAUUCAAUCCAUAGAGAGGUUAUCCGCUCAUAUAGAUCGGAAGAGCACACGU
With B26 the Kd was 72 ± 27 nM.

B27: target 1 MT 5'PFS UUG 3'PFS CAU (mixed)
RNA 1: CACCCGUGCAAAAAUGCAGGGGUCUAAAACUGAGCGGAUAACCUCUCUAUGG
RNA 2: GGGAAUGGAUCCACAUCUACGAAUUCUUGCCAUAGAGAGGUUAUCCGCUCACAUAGAUCGGAAGAGCACACGU
With B27 the Kd was 41 ± 13.5 nM.

B28: target 1 MT 5'PFS AAU 3'PFS UAG (mixed)
RNA 1: CACCCGUGCAAAAAUGCAGGGGUCUAAAACUGAGCGGAUAACCUCUCUAUGG
RNA 2: GGGAAUGGAUCCACAUCUACGAAUUCAAUCCAUAGAGAGGUUAUCCGCUCAUAGAGAUCGGAAGAGCACACGU
With B28 the Kd was 41.5 ± 20 nM.

From publication PMC10786891, “Massively parallel profiling of RNA-targeting CRISPR-Cas13d”
